Among the data in article PMC4072508, “Genome-Wide Prediction and Validation of Peptides That Bind Human Prosurvival Bcl-2 Proteins” (PLoS Computational Biology, 2014) are SPOT signal as a fraction of Bim BH3's signal on the same receptor and array values, retold here.

Holding throughout (experiment): peptide SPOT array, c-Myc-tagged receptor at 1 uM or 100 nM, anti-c-Myc-Cy3
For one assay, the target named is Bcl-xL, Q07817.
A further assay deals with T1, Bfl-1, Q16548.
T1 chain: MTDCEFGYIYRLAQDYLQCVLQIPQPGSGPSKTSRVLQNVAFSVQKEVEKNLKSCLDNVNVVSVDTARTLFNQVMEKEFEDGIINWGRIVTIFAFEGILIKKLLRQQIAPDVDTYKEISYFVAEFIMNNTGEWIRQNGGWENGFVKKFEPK

Another assay has as its target T2, Mcl-1, Q07820.
T2 chain: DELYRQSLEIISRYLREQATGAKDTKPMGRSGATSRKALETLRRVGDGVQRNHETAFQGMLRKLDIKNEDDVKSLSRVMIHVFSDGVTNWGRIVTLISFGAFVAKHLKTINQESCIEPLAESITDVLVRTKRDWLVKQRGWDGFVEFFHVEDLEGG

Bcl-xL, Q07817, sequence (Q07817 1-209): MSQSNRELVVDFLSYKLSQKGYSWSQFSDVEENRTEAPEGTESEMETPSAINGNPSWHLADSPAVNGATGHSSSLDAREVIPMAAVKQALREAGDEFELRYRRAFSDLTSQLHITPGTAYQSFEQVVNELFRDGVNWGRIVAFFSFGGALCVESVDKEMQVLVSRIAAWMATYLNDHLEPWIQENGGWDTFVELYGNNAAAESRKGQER

B1: DNAH10 (peptide)
chain: SMRRNAMGVGLVFELDLFTTRHISHW
Take B1: the SPOT signal as a fraction of Bim BH3's signal on the same receptor and array with Bcl-xL, Q07817 was found to be 0.21; with Bfl-1, Q16548 it was 0.17; with Mcl-1, Q07820, 0.18.

B2: LRP1 (peptide)
chain: MRSQLGKATALAIMLDKLWWADQVSE
Regarding B2, the SPOT signal as a fraction of Bim BH3's signal on the same receptor and array in the assay with Bcl-xL, Q07817 turned out to be 0.12; with Bfl-1, Q16548, 0.09; in the assay with Mcl-1, Q07820, 0.18.

B3: NCAPH2 (peptide)
chain: QEQEQHVPFDIHTYGDQLVSRFPQLN
B3: the SPOT signal as a fraction of Bim BH3's signal on the same receptor and array with Bcl-xL, Q07817 was found to be 0.06; in the assay with Bfl-1, Q16548, 0.05; in the assay with Mcl-1, Q07820, 0.04.

B4: CRB1 (peptide)
chain: TGSLCEIATTDSFEGDGFLWVKSGSV
For the molecule B4, the SPOT signal as a fraction of Bim BH3's signal on the same receptor and array with Bcl-xL, Q07817 was 0.06; with Bfl-1, Q16548, 0.03; with Mcl-1, Q07820, 0.04.

B5: ADAMTS14 (peptide)
chain: AFGLGDLPNLLGLVLDQLGDTERKRR
In the case of B5, the SPOT signal as a fraction of Bim BH3's signal on the same receptor and array with Bcl-xL, Q07817 was 0.07; in the assay with Bfl-1, Q16548, 0.05; with Mcl-1, Q07820, 0.06.

B6: CCDC57 (peptide)
chain: QAGPVSSGLALRKLGDRVQLLNLLVT
B6: the SPOT signal as a fraction of Bim BH3's signal on the same receptor and array with Bcl-xL, Q07817 worked out at 1.06; with Bfl-1, Q16548, 0.39; with Mcl-1, Q07820 it was 0.57.

B7: P2RX7 (peptide)
chain: QCPIFRLGDIDRETGDNFSDVAIQGG
As to B7, the SPOT signal as a fraction of Bim BH3's signal on the same receptor and array in the assay with Bcl-xL, Q07817 stood at 0.05; in the assay with Bfl-1, Q16548 it was 0.03; with Mcl-1, Q07820, 0.04.

B8: DNAH10 (peptide)
chain: SMRRNAMGVGLVFEADLFTTRHISHW
In the case of B8, the SPOT signal as a fraction of Bim BH3's signal on the same receptor and array is 0.24 with Bcl-xL, Q07817; 0.3 in the assay with Bfl-1, Q16548; 0.32 with Mcl-1, Q07820.

B9: TMEM214 (peptide)
chain: SFLSAHCASHDAWFGDSLTSLSQRLQ
B9: the SPOT signal as a fraction of Bim BH3's signal on the same receptor and array came out at 0.07 with Bcl-xL, Q07817; 0.06 with Bfl-1, Q16548; 0.05 in the assay with Mcl-1, Q07820.

B10: MKI67 (peptide)
chain: SGLPGLSSVDINNFGDSINESEGIPL
Take B10: the SPOT signal as a fraction of Bim BH3's signal on the same receptor and array turned out to be 0.08 with Bcl-xL, Q07817; 0.04 with Bfl-1, Q16548; 0.04 in the assay with Mcl-1, Q07820.

B11: P2RX7 (peptide)
chain: QCPIFRLGDIFRETGDNFSDVAIQGG
With B11, the SPOT signal as a fraction of Bim BH3's signal on the same receptor and array with Bcl-xL, Q07817 was 0.07; with Bfl-1, Q16548 it was 0.04; with Mcl-1, Q07820, 0.05.

B12: RNF160 (peptide)
chain: WLKGDILGEKLVNLADCLCNEDLESR
With B12, the SPOT signal as a fraction of Bim BH3's signal on the same receptor and array stood at 0.07 in the assay with Bcl-xL, Q07817; 0.06 with Bfl-1, Q16548; 0.05 in the assay with Mcl-1, Q07820.

B13: STK11IP (peptide)
chain: DSLLWKLAGLLRESLDVVLSGCSTLS
As for B13, the SPOT signal as a fraction of Bim BH3's signal on the same receptor and array in the assay with Bcl-xL, Q07817 came to 0.06; with Bfl-1, Q16548 it was 0.04; in the assay with Mcl-1, Q07820 it was 0.05.

B14: KIF19 (peptide)
chain: KLALEQRCRELRARGRRLEETLPRRI
As to B14, the SPOT signal as a fraction of Bim BH3's signal on the same receptor and array with Bcl-xL, Q07817 was determined as 1.22; with Bfl-1, Q16548, 0.62; in the assay with Mcl-1, Q07820, 0.58.

B15: COL2A1 (peptide)
chain: VLLTLLVAAVDRCQGQDVQEAGSCVQ
On to B15, for which the SPOT signal as a fraction of Bim BH3's signal on the same receptor and array amounted to 0.05 in the assay with Bcl-xL, Q07817; 0.03 with Bfl-1, Q16548; 0.05 in the assay with Mcl-1, Q07820.

B16: HDAC2 (peptide)
chain: MEMYQPSAVVDQCGADSLSGDRLGCF
Consider B16, for which the SPOT signal as a fraction of Bim BH3's signal on the same receptor and array with Bcl-xL, Q07817 was 0.06; in the assay with Bfl-1, Q16548, 0.03; in the assay with Mcl-1, Q07820, 0.04.

B17: BAK1 (peptide)
chain: SSTMGQVGRQLAIILDDINRRYDSEF
Regarding B17, the SPOT signal as a fraction of Bim BH3's signal on the same receptor and array in the assay with Bcl-xL, Q07817 worked out at 0.02; with Bfl-1, Q16548, 0.01; with Mcl-1, Q07820, 0.01.

B18: BBS10 (peptide)
chain: RMIVDCVSSHLKKTLDGAKTFIIFLC
Take B18: the SPOT signal as a fraction of Bim BH3's signal on the same receptor and array is 0.61 with Bcl-xL, Q07817; 0.24 with Bfl-1, Q16548; 0.21 with Mcl-1, Q07820.

B19: MCF2L (peptide)
chain: VDSIRPKCQEDRHLCDQFSAEIARRR
For the molecule B19, the SPOT signal as a fraction of Bim BH3's signal on the same receptor and array in the assay with Bcl-xL, Q07817 was found to be 0.25; with Bfl-1, Q16548 it was 0.1; with Mcl-1, Q07820 it was 0.08.

B20: PURB (peptide)
chain: FKAWGKFGGAFCRYLDEMKEIQERQR
As for B20, the SPOT signal as a fraction of Bim BH3's signal on the same receptor and array turned out to be 1.19 with Bcl-xL, Q07817; 1.19 with Bfl-1, Q16548; 1.07 with Mcl-1, Q07820.

B21: UBA6 (peptide)
chain: ADVHGIWSRLFCDFGDEFEVLDTTGE
As to B21, the SPOT signal as a fraction of Bim BH3's signal on the same receptor and array in the assay with Bcl-xL, Q07817 amounted to 0.07; with Bfl-1, Q16548, 0.04; in the assay with Mcl-1, Q07820, 0.04.

B22: FBXL3 (peptide)
chain: CHGLRELALNDHLLSDELLLALSSEK
In the case of B22, the SPOT signal as a fraction of Bim BH3's signal on the same receptor and array with Bcl-xL, Q07817 was 0.06; with Bfl-1, Q16548, 0.04; in the assay with Mcl-1, Q07820, 0.04.

B23: CCDC68 (peptide)
chain: QASREAGAAADRNVAQRLFENYQTQS
For the molecule B23, the SPOT signal as a fraction of Bim BH3's signal on the same receptor and array with Bcl-xL, Q07817 amounted to 0.05; with Bfl-1, Q16548, 0.04; with Mcl-1, Q07820, 0.04.

B24: SGCA (peptide)
chain: LFWTPLLVVLDAGLGDTEAQQTTLHP
Regarding B24, the SPOT signal as a fraction of Bim BH3's signal on the same receptor and array with Bcl-xL, Q07817 is 0.06; with Bfl-1, Q16548 it was 0.05; with Mcl-1, Q07820, 0.04.

B25: IGF2R (peptide)
chain: YFKLFRASGDMRTNLDNYLYEIQLSS
In the case of B25, the SPOT signal as a fraction of Bim BH3's signal on the same receptor and array in the assay with Bcl-xL, Q07817 worked out at 0.28; in the assay with Bfl-1, Q16548, 0.37; in the assay with Mcl-1, Q07820 it was 0.39.

B26: VCAM1 (peptide)
chain: KIETTPESRYLAQILDSVSLTCSTTG
As for B26, the SPOT signal as a fraction of Bim BH3's signal on the same receptor and array with Bcl-xL, Q07817 was 0.07; in the assay with Bfl-1, Q16548, 0.04; with Mcl-1, Q07820, 0.04.

B27: DZIP3 (peptide)
chain: NGGLLEFHKSLQEILDKNDHWFDIDP
B27: the SPOT signal as a fraction of Bim BH3's signal on the same receptor and array was 0.12 with Bcl-xL, Q07817; 0.05 with Bfl-1, Q16548; 0.06 with Mcl-1, Q07820.

B28: PROK2 (peptide)
chain: WVKSIRICTPMGKLLDSCHPLTRKVP
As for B28, the SPOT signal as a fraction of Bim BH3's signal on the same receptor and array stood at 1.23 in the assay with Bcl-xL, Q07817; 0.53 in the assay with Bfl-1, Q16548; 0.56 with Mcl-1, Q07820.
